Laboratory results: patent publication US20200165613, “VIRUS LIKE PARTICLE” (The University of Leeds, published 2020)
Numbering of substitutions follows the chain as printed.

Experiments:
[1] = biological target: T1, STNV coat protein wild-type (Satellite tobacco necrosis virus 1) (UniProt P03606); details: QELS after SEC; Rh 9.1 nm
T1 sequence: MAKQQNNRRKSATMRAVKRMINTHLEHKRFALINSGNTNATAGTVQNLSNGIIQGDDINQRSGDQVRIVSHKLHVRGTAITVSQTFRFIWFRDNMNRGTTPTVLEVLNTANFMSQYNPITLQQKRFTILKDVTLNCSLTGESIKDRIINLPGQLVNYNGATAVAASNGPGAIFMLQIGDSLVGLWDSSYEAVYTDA

[2] = biological target: T2, STNV coat protein wild-type (Satellite tobacco necrosis virus 1, UniProt P03606 P03606:1-196); assay: svAUC; T=1 capsids with similar efficiency to PS3; 2 mM Ca2+; details: chain copies: trimeric capsomer / T=1 capsid; stem-loop
T2 sequence: T1 sequence

[3] = biological target: T2, STNV coat protein wild-type; assay: smFCS; T=1 at lower CP than wild-type 127-mer; details: chain copies: trimeric capsomer / T=1 capsid; label: 5' Alexa Fluor 488; five stem-loops
[4] = biological target: T2, STNV coat protein wild-type; assay: smFCS; T=1 but cooperativity lost; details: chain copies: trimeric capsomer / T=1 capsid; label: 5' Alexa Fluor 488
[5] = biological target: T2, STNV coat protein wild-type; assay: competition; competes; forms T=1; text states low nanomolar affinity for AUUA; details: chain copies: trimeric capsomer / T=1 capsid; stem-loop
[6] = biological target: T2, STNV coat protein wild-type; assay: smFCS; Rh collapse 20-30% then cooperative T=1 assembly; details: chain copies: trimeric capsomer / T=1 capsid; label: 5' Alexa Fluor 488; five stem-loops
[7] = biological target: T2, STNV coat protein wild-type; assay: competition; unlabelled B3 displaces AF488-B3 at 100-fold excess; details: chain copies: trimeric capsomer / T=1 capsid; stem-loop
[8] = biological target: T2, STNV coat protein wild-type; assay: smFCS; more efficient than wild-type 127-mer; details: chain copies: trimeric capsomer / T=1 capsid; label: 5' Alexa Fluor 488; five stem-loops
[9] = biological target: T2, STNV coat protein wild-type; assay: smFCS; best assembly substrate; details: chain copies: trimeric capsomer / T=1 capsid; label: 5' Alexa Fluor 488; five stem-loops
[10] = biological target: T2, STNV coat protein wild-type; assay: competition; competes with B3; T=1 peak in svAUC; details: chain copies: trimeric capsomer / T=1 capsid; stem-loop

Molecule: STNV-1 genome
- activity (% relative VLP yield) [1]: 80

Molecule: ACAUGCAAGGAUGCACAC (ssRNA) [B3 AGGA]
- binding result [2]: binds

B1: Stable PS1-5 (ssRNA)
RNA: GGGCUGCCCUCAAGGACCAGGGCAGAAAAGAGGAAAAGAAAAGUGACAGAACACUUAUAAGGAACCACACAAGUGGAAGGAAAAAAGGAAGCUGCAAUAGCGCAAGGAAUCCGAAAAUUCGGAAAGGAA
- binding result [3]: binds

B2: Unstable PS1-5 (ssRNA)
RNA: B1 RNA with G75A, G76U
- binding result [4]: binds

Molecule: ACAUGCAAUUAUGCACAC (ssRNA) [B3 AUUA]
- binding result [5]: binds

B3: STNV-1 PS1-5 127-mer (ssRNA)
RNA: GAGUAAAGACAGGAAACUUUACUGACUAACAUGGCAAAACAACAGAACAACAGGCGAAAAUCCGCAACAAUGCGUGCAGUGAAGCGCAUGAUAAAUACACACUUGGAGCAUAAAAGGUUUGCACUGA
- binding result [6]: binds

Molecule: ACAUGCAACAAUGCACAC (ssRNA) [B3 short / PS3 ACAA]
- binding result [7]: binds

Molecule: ACAUGCAAGUAUGCACAC (ssRNA) [B3 AGUA]
- binding result [2]: binds

B4: All PS3 (ssRNA)
RNA: GGGCCCCGCAACAAUGCGGGGAAGGAAGGAAGGAAGAAAACGUACAAACGUUUUAAGGAACAACGCAACAAUGCGUUGAAGGAAGGAAGGAAGGGGCGUACAAACGCCCCAAGGAAUUUUGCAACAAUGCAAAAAAGGAA
- binding result [8]: binds

B5: Synthetic, stabilised PS1-5 (ssRNA)
RNA: GGGCUGCCCUCAAGGACCAGGGCAGAAAAGAGGAAAAGAAAAGUGACAGAACACUUAUAAGGAAAAAACGUACAAACGUUUUAAGGAAAAAAGGAAGCUGCAAUAGCGCAAGGAAUCCGAAAAUUCGGAAAGGAA
- binding result [9]: binds

Molecule: ACAUGCAAAAAUGCACAC (ssRNA) [B3 AAAA]
- binding result [2]: binds

Molecule: ACAUGCAAUGAUGCACAC (ssRNA) [B3 AUGA]
- binding result [2]: binds

Molecule: ACAUGCAUUUAUGCACAC (ssRNA) [B3 UUUA]
- binding result [10]: binds
